B1: Lysozyme C, P61626 (parent)
chain: MKALIVLGLVLLSVTVQGKVFERCELARTLKRLGMDGYRGISLANWMCLAKWESGYNTRATNYNAGDRSTDYGIFQINSRYWCNDGKTPGAVNACHLSCSALLQDNIADAVACAKRVVRDPQGIRAWVAWRNRCQNRDVRQYVQGCGV

Variants of: B1
Conditions: Homo sapiens; pH 2.6; Thermal; DSC; Gly-HCl 0.05 M; structure 1LZ1; whole UniProt chain shown

Variant | Tm | unfolding enthalpy (calorimetric) | unfolding enthalpy (van 't Hoff)
V20N | 59.1 °C | 104 kcal/mol | 99.9 kcal/mol
V20R | 62.1 °C | 103 kcal/mol | 110 kcal/mol
V92D | 61.7 °C | 103 kcal/mol | 110 kcal/mol

Same assay, conditions: Homo sapiens; pH 2.7; 64.9 °C; Thermal; DSC; Gly-HCl 0.05 M; structure 1LZ1; whole UniProt chain shown

Variant | ddG of mutation (higher = less stable) | heat capacity change of unfolding | unfolding enthalpy (calorimetric)
V20N | 1.34 kcal/mol | 1.7 kcal/mol/K | 114 kcal/mol
V20R | 0.38 kcal/mol | 1.41 kcal/mol/K | 106 kcal/mol
V92D | 0.43 kcal/mol | 1.58 kcal/mol/K | 107 kcal/mol
V92S | 0.38 kcal/mol | 1.22 kcal/mol/K | 108 kcal/mol
V20S | 1.41 kcal/mol | 1.55 kcal/mol/K | 111 kcal/mol
V92N | 0.33 kcal/mol | 1.1 kcal/mol/K | 115 kcal/mol
V20D | 1.43 kcal/mol | 1.58 kcal/mol/K | 111 kcal/mol
V92R | 0.07 kcal/mol | 1.67 kcal/mol/K | 104 kcal/mol
V128Y | 0.14 kcal/mol |  | 108 kcal/mol
V92Y | 0.24 kcal/mol | 1.65 kcal/mol/K | 107 kcal/mol
V128R | -0.88 kcal/mol |  | 101 kcal/mol
V20Y |  | 1.82 kcal/mol/K | 106 kcal/mol

Same assay, conditions: Homo sapiens; pH 2.7; Thermal; DSC; Gly-HCl 0.05 M; structure 1LZ1; whole UniProt chain shown

Variant | Tm | change of melting temperature, mutant - wild type (higher = more stable) | heat capacity change of unfolding | unfolding enthalpy (calorimetric)
V20N | 60.8 °C | -4.1 °C |  | 
V20R | 63.6 °C | -1.3 °C |  | 
V92D | 63.5 °C | -1.4 °C |  | 
V92S | 64.9 °C | 0 °C | 1.22 kcal/mol/K | 108 kcal/mol
V128D | 65.4 °C | 0.5 °C |  | 
V128N | 65.1 °C | 0.2 °C |  | 
V20S | 60.5 °C | -4.4 °C |  | 
V92N | 63.9 °C | -1 °C |  | 
V20D | 60.4 °C | -4.5 °C |  | 
V92R | 64.6 °C | -0.3 °C |  | 
V128Y | 64.4 °C | -0.5 °C |  | 
V92Y | 64 °C | -0.9 °C |  | 
V128R | 67.8 °C | 2.9 °C |  | 

Same assay, conditions: Homo sapiens; pH 2.82; Thermal; DSC; Gly-HCl 0.05 M; structure 1LZ1; whole UniProt chain shown

Variant | Tm | unfolding enthalpy (calorimetric) | unfolding enthalpy (van 't Hoff)
V20N | 62.7 °C | 110 kcal/mol | 105 kcal/mol

Same assay, conditions: Homo sapiens; pH 3.01; Thermal; DSC; Gly-HCl 0.05 M; structure 1LZ1; whole UniProt chain shown

Variant | Tm | unfolding enthalpy (calorimetric) | unfolding enthalpy (van 't Hoff)
V20N | 66.3 °C | 117 kcal/mol | 111 kcal/mol
V20D | 65.7 °C | 113 kcal/mol | 109 kcal/mol
V128R | 72.8 °C | 114 kcal/mol | 116 kcal/mol

Same assay, conditions: Homo sapiens; pH 2.88; Thermal; DSC; Gly-HCl 0.05 M; structure 1LZ1; whole UniProt chain shown

Variant | Tm | unfolding enthalpy (calorimetric) | unfolding enthalpy (van 't Hoff)
V20R | 66.4 °C | 108 kcal/mol | 115 kcal/mol

Same assay, conditions: Homo sapiens; pH 3.15; Thermal; DSC; Gly-HCl 0.05 M; structure 1LZ1; whole UniProt chain shown

Variant | Tm | unfolding enthalpy (calorimetric) | unfolding enthalpy (van 't Hoff)
V20R | 70.7 °C | 114 kcal/mol | 123 kcal/mol
V128R | 75 °C | 117 kcal/mol | 120 kcal/mol

Same assay, conditions: Homo sapiens; pH 3.3; Thermal; DSC; Gly-HCl 0.05 M; structure 1LZ1; whole UniProt chain shown

Variant | Tm | unfolding enthalpy (calorimetric) | unfolding enthalpy (van 't Hoff)
V20R | 74.1 °C | 120 kcal/mol | 126 kcal/mol
V20D | 70.2 °C | 120 kcal/mol | 118 kcal/mol

Same assay, conditions: Homo sapiens; pH 2.83; Thermal; DSC; Gly-HCl 0.05 M; structure 1LZ1; whole UniProt chain shown

Variant | Tm | unfolding enthalpy (calorimetric) | unfolding enthalpy (van 't Hoff)
V92D | 65.9 °C | 107 kcal/mol | 115 kcal/mol
V92S | 66 °C | 109 kcal/mol | 115 kcal/mol
V128N | 67.2 °C | 113 kcal/mol | 115 kcal/mol
V20S | 62.9 °C | 108 kcal/mol | 107 kcal/mol
V20Y | 65.9 °C | 108 kcal/mol | 110 kcal/mol

Same assay, conditions: Homo sapiens; pH 2.98; Thermal; DSC; Gly-HCl 0.05 M; structure 1LZ1; whole UniProt chain shown

Variant | Tm | unfolding enthalpy (calorimetric) | unfolding enthalpy (van 't Hoff)
V92D | 68.1 °C | 112 kcal/mol | 118 kcal/mol
V128Y | 69.3 °C | 114 kcal/mol | 114 kcal/mol

Same assay, conditions: Homo sapiens; pH 3.1; Thermal; DSC; Gly-HCl 0.05 M; structure 1LZ1; whole UniProt chain shown

Variant | Tm | unfolding enthalpy (calorimetric) | unfolding enthalpy (van 't Hoff)
V92D | 70.1 °C | 115 kcal/mol | 123 kcal/mol

Same assay, conditions: Homo sapiens; pH 3.25; Thermal; DSC; Gly-HCl 0.05 M; structure 1LZ1; whole UniProt chain shown

Variant | Tm | unfolding enthalpy (calorimetric) | unfolding enthalpy (van 't Hoff)
V92D | 72.5 °C | 120 kcal/mol | 127 kcal/mol

Same assay, conditions: Homo sapiens; pH 2.61; Thermal; DSC; Gly-HCl 0.05 M; structure 1LZ1; whole UniProt chain shown

Variant | Tm | unfolding enthalpy (calorimetric) | unfolding enthalpy (van 't Hoff)
V92S | 62.1 °C | 105 kcal/mol | 110 kcal/mol

Same assay, conditions: Homo sapiens; pH 3.28; Thermal; DSC; Gly-HCl 0.05 M; structure 1LZ1; whole UniProt chain shown

Variant | Tm | unfolding enthalpy (calorimetric) | unfolding enthalpy (van 't Hoff)
V92S | 72.2 °C | 117 kcal/mol | 122 kcal/mol

Same assay, conditions: Homo sapiens; pH 2.63; Thermal; DSC; Gly-HCl 0.05 M; structure 1LZ1; whole UniProt chain shown

Variant | Tm | unfolding enthalpy (calorimetric) | unfolding enthalpy (van 't Hoff)
V128D | 63.9 °C | 90.3 kcal/mol | 108 kcal/mol

Same assay, conditions: Homo sapiens; pH 2.84; Thermal; DSC; Gly-HCl 0.05 M; structure 1LZ1; whole UniProt chain shown

Variant | Tm | unfolding enthalpy (calorimetric) | unfolding enthalpy (van 't Hoff)
V128D | 67.9 °C | 96.8 kcal/mol | 112 kcal/mol
V92N | 66.2 °C | 114 kcal/mol | 116 kcal/mol

Same assay, conditions: Homo sapiens; pH 3; Thermal; DSC; Gly-HCl 0.05 M; structure 1LZ1; whole UniProt chain shown

Variant | Tm | unfolding enthalpy (calorimetric) | unfolding enthalpy (van 't Hoff)
V128D | 70.4 °C | 103 kcal/mol | 120 kcal/mol
V92R | 69.5 °C | 112 kcal/mol | 109 kcal/mol

Same assay, conditions: Homo sapiens; pH 3.34; Thermal; DSC; Gly-HCl 0.05 M; structure 1LZ1; whole UniProt chain shown

Variant | Tm | unfolding enthalpy (calorimetric) | unfolding enthalpy (van 't Hoff)
V128D | 75.5 °C | 108 kcal/mol | 125 kcal/mol

Same assay, conditions: Homo sapiens; pH 2.64; Thermal; DSC; Gly-HCl 0.05 M; structure 1LZ1; whole UniProt chain shown

Variant | Tm | unfolding enthalpy (calorimetric) | unfolding enthalpy (van 't Hoff)
V128N | 64 °C | 108 kcal/mol | 109 kcal/mol

Same assay, conditions: Homo sapiens; pH 3.04; Thermal; DSC; Gly-HCl 0.05 M; structure 1LZ1; whole UniProt chain shown

Variant | Tm | unfolding enthalpy (calorimetric) | unfolding enthalpy (van 't Hoff)
V128N | 70.6 °C | 118 kcal/mol | 118 kcal/mol

Same assay, conditions: Homo sapiens; pH 3.13; Thermal; DSC; Gly-HCl 0.05 M; structure 1LZ1; whole UniProt chain shown

Variant | Tm | unfolding enthalpy (calorimetric) | unfolding enthalpy (van 't Hoff)
V128N | 71.7 °C | 120 kcal/mol | 122 kcal/mol

Same assay, conditions: Homo sapiens; pH 2.65; Thermal; DSC; Gly-HCl 0.05 M; structure 1LZ1; whole UniProt chain shown

Variant | Tm | unfolding enthalpy (calorimetric) | unfolding enthalpy (van 't Hoff)
V20S | 59.4 °C | 103 kcal/mol | 103 kcal/mol
V92N | 63 °C | 110 kcal/mol | 114 kcal/mol

Same assay, conditions: Homo sapiens; pH 3.09; Thermal; DSC; Gly-HCl 0.05 M; structure 1LZ1; whole UniProt chain shown

Variant | Tm | unfolding enthalpy (calorimetric) | unfolding enthalpy (van 't Hoff)
V20S | 67.1 °C | 115 kcal/mol | 114 kcal/mol

Same assay, conditions: Homo sapiens; pH 3.45; Thermal; DSC; Gly-HCl 0.05 M; structure 1LZ1; whole UniProt chain shown

Variant | Tm | unfolding enthalpy (calorimetric) | unfolding enthalpy (van 't Hoff)
V20S | 73 °C | 124 kcal/mol | 126 kcal/mol

Same assay, conditions: Homo sapiens; pH 2.66; Thermal; DSC; Gly-HCl 0.05 M; structure 1LZ1; whole UniProt chain shown

Variant | Tm | unfolding enthalpy (calorimetric) | unfolding enthalpy (van 't Hoff)
V20D | 59.6 °C | 103 kcal/mol | 99.9 kcal/mol
V92R | 63.8 °C | 102 kcal/mol | 100 kcal/mol
V128Y | 63.3 °C | 106 kcal/mol | 105 kcal/mol

Same assay, conditions: Homo sapiens; pH 2.96; Thermal; DSC; Gly-HCl 0.05 M; structure 1LZ1; whole UniProt chain shown

Variant | Tm | unfolding enthalpy (calorimetric) | unfolding enthalpy (van 't Hoff)
V20D | 64.9 °C | 112 kcal/mol | 108 kcal/mol

Same assay, conditions: Homo sapiens; pH 3.14; Thermal; DSC; Gly-HCl 0.05 M; structure 1LZ1; whole UniProt chain shown

Variant | Tm | unfolding enthalpy (calorimetric) | unfolding enthalpy (van 't Hoff)
V20D | 68 °C | 116 kcal/mol | 113 kcal/mol

Same assay, conditions: Homo sapiens; pH 2.85; Thermal; DSC; Gly-HCl 0.05 M; structure 1LZ1; whole UniProt chain shown

Variant | Tm | unfolding enthalpy (calorimetric) | unfolding enthalpy (van 't Hoff)
V92R | 67.3 °C | 108 kcal/mol | 105 kcal/mol

Same assay, conditions: Homo sapiens; pH 3.18; Thermal; DSC; Gly-HCl 0.05 M; structure 1LZ1; whole UniProt chain shown

Variant | Tm | unfolding enthalpy (calorimetric) | unfolding enthalpy (van 't Hoff)
V92R | 72.8 °C | 117 kcal/mol | 114 kcal/mol
V128Y | 72.2 °C | 120 kcal/mol | 121 kcal/mol

Same assay, conditions: Homo sapiens; pH 3.22; Thermal; DSC; Gly-HCl 0.05 M; structure 1LZ1; whole UniProt chain shown

Variant | Tm | unfolding enthalpy (calorimetric) | unfolding enthalpy (van 't Hoff)
V92R | 73.2 °C | 118 kcal/mol | 116 kcal/mol

Same assay, conditions: Homo sapiens; pH 3.38; Thermal; DSC; Gly-HCl 0.05 M; structure 1LZ1; whole UniProt chain shown

Variant | Tm | unfolding enthalpy (calorimetric) | unfolding enthalpy (van 't Hoff)
V128Y | 75.4 °C | 125 kcal/mol | 125 kcal/mol

Same assay, conditions: Homo sapiens; pH 2.67; Thermal; DSC; Gly-HCl 0.05 M; structure 1LZ1; whole UniProt chain shown

Variant | Tm | unfolding enthalpy (calorimetric) | unfolding enthalpy (van 't Hoff)
V92Y | 63.3 °C | 104 kcal/mol | 104 kcal/mol

Same assay, conditions: Homo sapiens; pH 3.02; Thermal; DSC; Gly-HCl 0.05 M; structure 1LZ1; whole UniProt chain shown

Variant | Tm | unfolding enthalpy (calorimetric) | unfolding enthalpy (van 't Hoff)
V92Y | 70 °C | 115 kcal/mol | 116 kcal/mol

Same assay, conditions: Homo sapiens; pH 3.21; Thermal; DSC; Gly-HCl 0.05 M; structure 1LZ1; whole UniProt chain shown

Variant | Tm | unfolding enthalpy (calorimetric) | unfolding enthalpy (van 't Hoff)
V92Y | 73.3 °C | 120 kcal/mol | 120 kcal/mol
V20Y | 72 °C | 120 kcal/mol | 120 kcal/mol

Same assay, conditions: Homo sapiens; pH 3.26; Thermal; DSC; Gly-HCl 0.05 M; structure 1LZ1; whole UniProt chain shown

Variant | Tm | unfolding enthalpy (calorimetric) | unfolding enthalpy (van 't Hoff)
V92Y | 74.1 °C | 122 kcal/mol | 123 kcal/mol

Same assay, conditions: Homo sapiens; pH 2.8; Thermal; DSC; Gly-HCl 0.05 M; structure 1LZ1; whole UniProt chain shown

Variant | Tm | unfolding enthalpy (calorimetric) | unfolding enthalpy (van 't Hoff)
V128R | 69.3 °C | 108 kcal/mol | 110 kcal/mol

Same assay, conditions: Homo sapiens; pH 2.91; Thermal; DSC; Gly-HCl 0.05 M; structure 1LZ1; whole UniProt chain shown

Variant | Tm | unfolding enthalpy (calorimetric) | unfolding enthalpy (van 't Hoff)
V20Y | 67.4 °C | 111 kcal/mol | 112 kcal/mol

Same assay, conditions: Homo sapiens; pH 3.2; Thermal; DSC; Gly-HCl 0.05 M; structure 1LZ1; whole UniProt chain shown

Variant | Tm | unfolding enthalpy (calorimetric) | unfolding enthalpy (van 't Hoff)
V20Y | 72.3 °C | 119 kcal/mol | 120 kcal/mol

Same assay, conditions: Homo sapiens; pH 3.24; Thermal; DSC; Gly-HCl 0.05 M; structure 1LZ1; whole UniProt chain shown

Variant | Tm | unfolding enthalpy (calorimetric) | unfolding enthalpy (van 't Hoff)
V20Y | 73 °C | 121 kcal/mol | 122 kcal/mol

Reference: FireProtDB (doi:10.1074/jbc.m110728200)
